The text below walks through data of PMC8221199.

Where two headings read alike, the source gives them in different places.

One assay addresses acetyltransferase p300 (UniProt Q09472).
Assay [1] has as its target p53 N-terminal peptide (Homo sapiens) (UniProt P04637). The conditions noted are these: cited from earlier work.
The target is the same in assay [2]. The conditions noted are these: cited from earlier work. The source holds these as a separate data set.
Assay [3] has the same target. The conditions noted are these: cited from earlier work. The source holds these as a separate data set.
The target is the same in assay [4]. As to conditions: cited from earlier work. This is another data set of the same source.

p300 Taz1, sequence (Q09472 323-423): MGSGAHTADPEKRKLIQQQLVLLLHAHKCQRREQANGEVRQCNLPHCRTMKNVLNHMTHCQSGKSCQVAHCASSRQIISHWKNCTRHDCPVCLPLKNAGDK
p300 IBiD, sequence (Q09472 2050-2094): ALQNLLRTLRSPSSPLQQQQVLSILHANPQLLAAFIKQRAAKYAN
acetyltransferase p300, sequence (Q09472 whole entry): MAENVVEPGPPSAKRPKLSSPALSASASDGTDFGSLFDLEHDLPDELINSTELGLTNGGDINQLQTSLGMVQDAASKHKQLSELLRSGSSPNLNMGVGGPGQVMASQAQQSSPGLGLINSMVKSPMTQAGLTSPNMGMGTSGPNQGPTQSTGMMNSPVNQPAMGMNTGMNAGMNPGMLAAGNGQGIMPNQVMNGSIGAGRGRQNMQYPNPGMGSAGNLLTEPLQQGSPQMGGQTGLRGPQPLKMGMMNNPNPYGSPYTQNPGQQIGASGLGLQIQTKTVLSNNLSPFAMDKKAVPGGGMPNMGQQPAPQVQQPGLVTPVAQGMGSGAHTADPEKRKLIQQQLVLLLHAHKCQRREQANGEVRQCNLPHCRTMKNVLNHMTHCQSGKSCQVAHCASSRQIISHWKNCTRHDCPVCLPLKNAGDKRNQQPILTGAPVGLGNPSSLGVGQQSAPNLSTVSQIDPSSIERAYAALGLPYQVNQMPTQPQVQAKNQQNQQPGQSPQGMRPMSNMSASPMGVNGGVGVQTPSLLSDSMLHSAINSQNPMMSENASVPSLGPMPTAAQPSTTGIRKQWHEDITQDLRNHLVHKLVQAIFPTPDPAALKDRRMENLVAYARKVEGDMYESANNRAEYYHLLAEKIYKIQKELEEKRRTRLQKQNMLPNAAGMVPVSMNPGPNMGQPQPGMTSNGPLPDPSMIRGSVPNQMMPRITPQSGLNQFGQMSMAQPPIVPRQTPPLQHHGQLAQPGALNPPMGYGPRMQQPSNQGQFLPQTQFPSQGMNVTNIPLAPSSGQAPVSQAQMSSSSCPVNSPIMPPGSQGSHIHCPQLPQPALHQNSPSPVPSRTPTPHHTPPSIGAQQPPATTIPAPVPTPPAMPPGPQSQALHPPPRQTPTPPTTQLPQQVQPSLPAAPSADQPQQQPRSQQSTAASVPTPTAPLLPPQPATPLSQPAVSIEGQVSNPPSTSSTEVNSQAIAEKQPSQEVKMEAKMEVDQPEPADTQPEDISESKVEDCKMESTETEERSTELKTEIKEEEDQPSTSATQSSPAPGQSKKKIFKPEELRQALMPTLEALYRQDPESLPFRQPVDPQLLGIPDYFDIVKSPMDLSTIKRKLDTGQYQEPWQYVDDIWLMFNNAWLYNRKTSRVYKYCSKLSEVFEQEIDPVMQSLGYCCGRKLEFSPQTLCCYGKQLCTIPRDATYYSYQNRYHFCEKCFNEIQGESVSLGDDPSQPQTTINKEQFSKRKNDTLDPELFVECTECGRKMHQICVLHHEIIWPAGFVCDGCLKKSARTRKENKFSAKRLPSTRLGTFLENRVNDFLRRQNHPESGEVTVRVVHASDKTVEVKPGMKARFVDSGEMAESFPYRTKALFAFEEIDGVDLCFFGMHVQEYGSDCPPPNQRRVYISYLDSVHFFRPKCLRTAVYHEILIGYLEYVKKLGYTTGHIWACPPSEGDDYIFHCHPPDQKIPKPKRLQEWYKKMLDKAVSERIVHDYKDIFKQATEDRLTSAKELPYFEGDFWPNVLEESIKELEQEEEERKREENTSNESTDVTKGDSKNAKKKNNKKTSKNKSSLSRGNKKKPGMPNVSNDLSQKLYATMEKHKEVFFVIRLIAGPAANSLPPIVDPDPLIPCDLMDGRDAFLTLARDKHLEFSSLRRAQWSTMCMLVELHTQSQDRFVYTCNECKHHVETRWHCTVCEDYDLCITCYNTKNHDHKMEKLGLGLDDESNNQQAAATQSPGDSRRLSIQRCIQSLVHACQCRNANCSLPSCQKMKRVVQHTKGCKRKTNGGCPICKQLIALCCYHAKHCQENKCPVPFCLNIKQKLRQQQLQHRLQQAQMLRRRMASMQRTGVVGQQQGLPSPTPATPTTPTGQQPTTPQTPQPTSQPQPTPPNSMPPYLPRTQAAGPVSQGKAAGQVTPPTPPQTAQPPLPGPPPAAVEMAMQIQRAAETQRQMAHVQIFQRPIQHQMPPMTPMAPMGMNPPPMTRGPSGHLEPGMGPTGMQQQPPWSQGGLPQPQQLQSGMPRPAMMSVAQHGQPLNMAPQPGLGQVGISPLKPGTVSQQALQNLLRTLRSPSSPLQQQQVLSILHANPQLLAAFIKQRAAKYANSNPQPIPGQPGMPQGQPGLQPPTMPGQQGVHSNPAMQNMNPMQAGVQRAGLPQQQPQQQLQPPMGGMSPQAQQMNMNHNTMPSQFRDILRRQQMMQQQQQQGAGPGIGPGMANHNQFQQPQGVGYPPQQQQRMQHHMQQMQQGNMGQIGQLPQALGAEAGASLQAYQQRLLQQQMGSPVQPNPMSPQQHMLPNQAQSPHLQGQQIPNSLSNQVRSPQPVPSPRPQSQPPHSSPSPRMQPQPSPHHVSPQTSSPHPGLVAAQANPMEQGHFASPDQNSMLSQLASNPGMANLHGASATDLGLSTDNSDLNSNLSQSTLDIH
p300 Kix, sequence (Q09472 563-648): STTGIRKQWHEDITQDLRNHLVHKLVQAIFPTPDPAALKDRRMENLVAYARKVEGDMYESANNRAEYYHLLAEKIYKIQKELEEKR
p300 Taz2, sequence (Q09472 1723-1812): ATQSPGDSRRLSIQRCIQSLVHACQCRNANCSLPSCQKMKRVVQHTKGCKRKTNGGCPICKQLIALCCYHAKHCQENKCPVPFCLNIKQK

Consider “semi-synthetic full-length p53 with phosphoserine at positions 15 and 20 (from UniProt P04637 1-393) (natural protein)”, for which the p300-dependent acetylation of p53 (western blot, Lys373ac), relative rate in the assay with acetyltransferase p300 was 2.3 fold.
p300 Taz2 (from UniProt Q09472): the Kd in assay [1] is 0.02 µM.
p300 Taz1 (from UniProt Q09472): the equilibrium dissociation constant (Kd) in assay [2] is 1 µM.
Turning to p300 IBiD (from UniProt Q09472), the Kd in assay [3] is 8 µM.
On to p300 Kix (from UniProt Q09472), for which, in assay [4], the equilibrium dissociation constant (Kd) is 3 µM.
